# From article PMC8299219 (Cell, 2021)
# B1: C53F9 (antibody, V domains shown)
# VH: QVQLVQSGAEVKKPGASVKVSCKASGYTFTSYGISWVRQAPGQGLEWMGWISAYNGNTNYAQKLQGRVTMTTDTSTSTAYMELRSLRSDDTAVYYCARVGTYYYDSSAYYFDYWGQGTLVTVSS
# VL: not shown
# B2: C63D3 (antibody, V domains shown)
# VH: EVQLVESGGGLVQPGGSLRLSCAASGFTFSSYDMHWVRQATGKGLEWVSVIGTAGDTYYPGSVKGRFTISRENAKNSLYLQMNSLRAGDTAVYYCARGHSTGQGYSYYYYMDVWGKGTTVTVSS
# VL: not shown
# B3: C15D10 (antibody, V domains shown)
# VH: QVQLQQSGPGLVKPSQTLSLTCAISGDSVSSNSAAWNWIRQSPSRGLEWLGRTYYRSKWYNDYAVSVKSRITINPDTSKNQFSLQLNSVTPEDTAVYYCAREQQLVSHDYYYYYGMDVWGQGTTVTVSS
# VL: QSALTQPASVSGSPGQSITISCTGTSSDVGGYNYVSWYQQHPGKAPKLMIYDVSNRPSGVSNRFSGSKSGNTASLTISGLQAEDEADYYCSSYTSSSSLFGTGTKVTVL
# B4: C53F11 (antibody, V domains shown)
# VH: QVQLQESGPGLVKPSETLSLTCTVSGYSISSGYYWGWIRQPPGKGLEWIGSIYHSESTYYNPSLKSRVTISVDTSKSQFSLKLSSVTAADTAVYYCGRSLWDSIWEDHIGAVDYWGQGTLVTVSS
# VL: QSALTQPASVSGSPGQSITISCTGTSSDVGNYNLVSWYQQHPGKAPKLMIYEGSKRPSGVSNRFSGSKSGNTASLTISGLQAEDEADYYCCSYAGSSILWVFGGGTKLTVL
# B5: G32Q4 (antibody, V domains shown)
# VH: QVQLVESGGGVVQPGRSLRLSCAASGFTFSRYAMQWVRQAPGKGLEWVAVISYDGNNRYYADSVKGRFTISRDNSKNTLYLQMNSLRAEDTAVYYCARGPPGYYDSSGYYQTPEYFQHWGQGTLVTVSS
# VL: QSVLTQPPSVSGAPGQRVTISCTGSSSNIGVGYDVHWYQQFPGTVPKLLIYGNSNRPSGVPDRFSGSKSGTSASLAITGLQAEDEADYYCQSYDSSLSGVVFGGGTKLTVL
# B6: C30C2 (antibody, V domains shown)
# VH: EVQLVESGGGLVQPGGSLRLSCAASGFTVSSNYMSWVRQAPGKGLEWVSVIYSGGSTYYADSVKGRFTISRDNSKNTLYLQVNSLRAEDTAVYYCARDGRDNAFDIWGQGTMVTVSS
# VL: not shown
# B7: C102A4 (antibody, V domains shown)
# VH: QVQLVQSGAEVKKPGSSVKVSCKASGGTFSSYAISWVRQAPGQGLEWMGGIIPIFGTANYAQKFQGRVTITADESTSTAYMELSSLRSEDTAVYYCATQPSYGDLDLFDYWGQGTLVTVSS
# VL: not shown
# B8: G32B6 (antibody, V domains shown)
# VH: QVQLVQSGAEVKKPGASVKVSCKASGYTFTGYYMYWVRQAPGQGLEWMGWINPNSGGTNYAQKFQGRVTMTRDRSISTAYMELSRLRSDDTAMYYCARDRVGDILTGYYGYWGQGTLVTVSS
# VL: QSALTQPPSASGSPGQSVTISCTGTSSDVDSYNYVSWYQQHPGKAPKLMIYEVSKRPSGVPDRFSGSKSGNTASLTVSGLQAEDEADYYCSSYAGSNNWVFGGGTKLTVL
# B9: G32A8 (antibody, V domains shown)
# VH: QVQLVQSGAEVKKPGASVKVSCKASGYTFTGYYMHWVRQAPGQGLEWMGWINPNSGATNYAQKFQGRVTMTRDTSINTAYMELNRLRSDDTAVYYCARDIVFSRLGASFDYWGQGTLVTVSS
# VL: QSALTQPPSASGSPGQSVTISCTGTSSDVGGYNYVSWYQQHPGKAPKLMIYEVTKRPSGVPDRFSGSKSGNTASLTVSGLQAEDEADYYCSSYAGSNYNVFGGGTKLTVL
# B10: C53E1 (antibody, V domains shown)
# VH: EVQLVQSGAEVKKPGESLKISCKGSGYSFTSYWIGWVRQMPGKGLEWMGIIYPGDSDTTYSPSFQGQVTISADKSISTAYLQWSSLKASDTAMYYCARRSNSPFPLIDYWGQGTLVTVSS
# VL: not shown
# B11: C15D4 (antibody, V domains shown)
# VH: QVQLQQWGAGLLKPSETLSRTCAVYGGSFSGYYWTWIRQPPGMALEWIGDINHGGVTNYNPSLKSRVTISVDTSKNQFSLRLTSVTAADTAVYYCARRLLGDPRPASSSLSLRRVSYMDVWDKGTTVTVSS
# VL: DIQMTQSPSSMSASVGDRVTITCRASQSISNYLNWYQQKPGRAPKLLIYGASSLQSGVPSRFGGSGSGTEFTLTITALQPEDSATYYCQQIHGAPPITFGQGTRLEIK
# B12: C18C11 (antibody, V domains shown)
# VH: EVQLVESGGGVVQPGRSLRLSCAASGFTFSSYAMHWVRQAPGKGLEWVAVISYDGSNKYYADSVKGRFTISRDNSKNTLYLQMNSLRAEDTAVYYCASLITMVRGVFDYWGQGTLVTVSS
# VL: not shown
# B13: C89A10 (antibody, V domains shown)
# VH: EVQLLESGGGLVQPGGSLRLSCAASGFIFSSYAMSWVRQAPGKGLEWVSVISGSGDITYYADSVKGRFTISRDNSKNTLYLQMNSLRAEDTAVYYCAKDIDEPTAMVESWGYWGQGTLVTVSS
# VL: QSALTQPRSVSGSPGQSVTISCTGTSSDVGGYNYVSWYQQHPGKAPKLMIYDVSKRPSGVPDRFSGSKSGNTASLTISGLQAEDEADYYCCSYAGSWVFGGGTKLTVL
# B14: C41P1 (antibody, V domains shown)
# VH: QVQLVESGGGVVQPGRSLRLSCAASGFTFSSYAMHWVRQAPGKGLEWVAVISYDGRNKYYADSVKGRFTISRENSKNTLYLQMNSLRAEDTAVYYCARDLGVVVPAAIGWVNPRDDYYYYYGMDVWGQGTTVTVSS
# VL: SYELTQPPSVSVSPGQTARITCSGDALPKQYAYWYQQKPGQAPVLVIYKDSERPSGIPERFSGSSSGTTVTLTISGVQAEDEADYYCQSADSSGTYRVFGTGTKVTVL
# B15: C98C7 (antibody, V domains shown)
# VH: EVQLVESGGGLVQPGGSLRLSCAASGITVSSNYMSWVRQAPGKGLEWVSVIYSGGSTFYADSVKGRFTISRDNSKNTLYLQMSSLRAEDTAVYYCARDLVVFGMDVWGQGTTVTVSS
# VL: EIVLTQSPGTLSLSPGETATLSCRASQSVGSSYLTWYQQKPGQAPRLLIYGASSRATGIPDRFSGSGSGTDFTLTISRLEPEDFAVYYCQHYGSSPTFGQGTKVEIK
# B16: C53F10 (antibody, V domains shown)
# VH: EVQLVQSGAEVKKPGESLRISCKGAGYSFTSYWITWVRQMPGKGLEWMGRIDPSDSYTNYSPSFEGHVTISADKSISTAYLQWSSLKASDTAMYYCARLYCGGDCPPGYWGQGTLVTVSS
# VL: not shown
# B17: C63C7 (antibody, V domains shown)
# VH: not shown
# VL: QSVLTQPPSVSGAPGQRATISCTGSSSNIGAGYDVHWYQQLPGTSPKLLIYGNSNRPSGVPDRFSGSKSGTSASLAITGLQAEDEAEYYCQSYDSSLSGSVVFGGGTKLTVL
# B18: G32C4 (antibody, V domains shown)
# VH: EVQLVQSGAEVKKPGESLKISCKGSGYSFISYWIGWVRQMPGKGLEWMGIIYPGDSDTRYSPSFQGQVTISADKSISTAYLQWSSLKASDTAMYYCARMTQGYGTIRPLYYFDYWGQGTLVTVSS
# VL: not shown
# Biological target: SARS-CoV-2 S ectodomain trimer, prefusion-stabilized, 2P variant (Wrapp et al., 2020) (SARS-CoV-2, Wuhan-Hu-1, UniProt P0DTC2, stabilised)
row,Binder,binding result
1,B1,binds
2,B2,binds
3,B3,binds
4,B4,binds
5,B5,binds
6,B6,binds
7,B7,binds
8,B8,binds
9,B9,binds
10,B10,binds
11,B11,binds
12,B12,binds
13,B13,binds
14,B14,binds
15,B15,binds
16,B16,binds
17,B17,binds
18,B18,binds
